The source of these data is the DeepSol protein solubility set.

This data set in a line: soluble on expression in E. coli; label from the status in PepcDB or PDB records.
For the sequence “SYFSIFSPSFTSLRHDGKPVQCSGLDMQFDPSEPGFYDDPDLSYSIEKPITKWDEKRNQWFESHPSFKPGSENRIVMVTGSQSSPCKNPIGDHLLLRCFKNKVDYARIHGHDIFYSNSLLHPKMNSYWAKLPVVKAAMLAHPEAEWIWWVDSDAIFTDMEFKPPLHRYRQHNLVVHGWPNIIYEKQSWTALNAGVFLIRNCQWSMDLIDTWKSMGPVSPDYKKWGPIQRSIFKDKLFPESDDQTALIYLLYKHKELYYPKIYLEAEYYLQGYWIGVFGDFANVTERYLEMEREDDTLRRRHAEKVSERYGAFREERFLKGEFGGRGSRRRAFITHFTGCQPCSGDHNPSYDGDTCWNEMTRALNFADNQVMRVYGYVHSDLSKTSPLQPLPFDYPNEAW”, the “soluble on expression in E. coli” value is “soluble”.

On to “MQQNIQYTYSSDPRSGGNQNQQLHGISQFQQNSYQPTTYSNSNANNFHSSNSATFIPNSVTQTPQRRMGEEKSLVNMLDAYFIDSTTPSTSTSWNNQQPVQMSSIQQSVGSYNQQIPQLKVGDVDLQVEGMNVKLSSSPDKGEKDRVKKARQAEAARMRYHRLSNEEKRELNLKRTLAQKRKRQREKEMEELESILRETNDIQEDPDITEQLREKRMRAKWAEAARTRYARMTPEERRAHNTRRRMRQMQNAMSAIKACGMATGDPQKDDEAVRLHIKTQNAKKAEAARQRYHRMNDDEKRVYNQRRTEAFRRRRMEEEMLLAMPIGRINGEALDRAQQIVVRNAKRAEAARLRYQRMTPDQRKVAKQEPKEESWPSHEQSDTQIDHDLDLGDSYNQKRYTPKRRRNEMDDMISAGQMAVGSSGTITMGTGTPAKKDDMDALSSLERDVVKRTQHAQQILLRQRANQSSGTPRSVTPPPQAYIISNGQQQHQQLVGNQGNNGIGQHQVLHQGHMQQQQIQVSHQQSSQSIPQNIYTSGMIIQNQGQQQQGQQQQQGQSQQILNNPYRT”, for which the “soluble on expression in E. coli” value is on record as “not soluble”.

With “MNSVGEACTDMKREYDQCFNRWFAEKFLKGDSSGDPCTDLFKRYQQCVQKAIKEKEIPIEGLEFMGHGKEKPENSSLEHHHHHH”, the “soluble on expression in E. coli” value was “not soluble”.

Regarding “GMDKLVKYQELVKKLLTNYASDDVSDQDVEVQLILDTERNHYQWMNVGWQGLNRIYRCVIHFDIKDGKIWLQQNLTDRNPAEELVMMGVPREDIVLGLQAPYKRQYTDYGVA”, the “soluble on expression in E. coli” value is listed as “soluble”.

Turning to “MGSDKIHHHHHHMNNNIPLRALQIFEACARLESCSLAANELCITQSAVSQQIKQLEDYFLEKLFYRQGGKINLTEAGIELRERLAPVFYDLNSVCSSLVQNMAGEVRVHSYTSLAARWLVPKMEQLRQMYPELNINVGMFQNDIEMSDMIADIFIVTRECQDGYTIIPLVTEKLVAFCSPDYLAQSQGISLATLDQHCLLYSKHKDYGVDWDTWFRNNDIAISPNQKKIFFNHNMLAVQAAIYGQGIVLGLEQTLKVELDSGNLVKLDLPTCLSGLTYYIAYKTSKKRDARIMRIVDWIIDNYPGDHPGDRTLAR”, the “soluble on expression in E. coli” value is given as “not soluble”.

Take “MGSDKIHHHHHHMIEKPNAICLKNRKIIKVTGEEATHFLQALITTDVKKIGLQEIFPGALLSPQGKVLADFLIGKREDGYFIDIFSSLSDLLYKRLLLYKMRTKVEIMQPLQEFVTVSWENETDSLNFYSSFIDKRFPAKEKIIRIYGETPFLASECHDNWNRLRIRYAIPESDKDYEIGKVFPHDINYDQINGLAFNKGCYIGQEVVSRMHHRRAARRRILLVKSQHELIPGANIVAGTKILGSLGTCAANEALALMRIDHIKDAMDHNTPFTVKDVPVTISIAENMNFTFPESTV”: the “soluble on expression in E. coli” value is on record as “not soluble”.

On to “MKALITAADIKKASETPEKILTISEADLITPAARDAAKELGVQITAHPVSLPPTVAPSPAFSPASPLDPALVSRIIEEVMVCLNRSGSPAQPQKEADPGGLRIVKGNSLILEDFATGNPRDQIKIKELFNKKECPLYSAGIMALDKTSYSLTPARDELNYIIEGTLECCIDNRCYTAQAGDTLYIPAQAKIILTAADKVKLFYVC”, for which the “soluble on expression in E. coli” value is reported as “not soluble”.

Turning to “MAIQFIVSNKYTAEVSKQLNDSQNWVLDSGIYYEDHNNHIVSSPINSATKPQNTREEWLWIPPHCQVVVCSTSSLKSFLGCKASEDLDRVFGDHPLWLDQLRPLSNLLENSLIDLLSRAPFEQSSKRNIQSMERGNPVMNWNVMQVEEEDTRGEQRVAASSSLSSSFDWNTFLRDRCGLSEEDVAYCFRKLSRFGRVSLSRLNEDSLLRMGINDPTVIAKLLIGITEEFS”, the “soluble on expression in E. coli” value is recorded as “not soluble”.

Consider “FCGRARVHTDFTPSPYDTDSLKLKKGDIIDIISKPPMGTWMGLLNNKVGTFKFIYVDVLS”, for which the “soluble on expression in E. coli” value is on record as “soluble”.

For “MGSDKIHHHHHHMKRKIIQQLKLWKDNPARKPLILLGARQVGKTWVMKHFGQTEFENVAYINCDVEPLAKELFAADYSIPRILLTLQAITGTKIEAGKTLIVFDELQEVERGLHSLKYFQENAPEYHVMAAGSLLGITLGKGQSFPVGKVNVMHLYPMDFEEFLMAAGETDLCDLLHQPDWEILKILSLKYVDLLRQYYYVGGMPEVVDCFFQHQNLQEVRDKQTEILDAYRRDISKHTTATESIRIGQVLQSLPSQLAKENKKFIYNVLKKGARATEYELAIQWLMDAGLVHKVSRIKELQMPVKFYEDLGAFKLFLLDCGLLGCMTEAPASQMLVGDNVFKEFKGAFTEQFVLQQLVAQGFSPYYWSSDKTPAEIDFVVQTEHRVIPVEVKAEENVRARSMSEYIKNHPDYQLKGLRISMMGYQDQEWMENIPLFAITKFFG”, the “soluble on expression in E. coli” value was “not soluble”.

As for “MPPLRQFLNRLLALTIRMQNVIFERFELLLSQQIETAIANGIFEAGVETLRAERFTIESCESVYTHPDTGSVTNYLKVEQVQRNNIRTAVEMLEFAAKYQGQLMVNQKSSNAAVSIPTHSIFDCDGGVVPRVLLVRPQKETRVPVEQLESSTWQQVSAEEFVTAWSREVDELPRFTTDYLHLVTGILLPIWKILPQKNSRVFRLQTSDGQKILGRVVHASDIQTVTEQLGLKNKLEHHHHHH”, the “soluble on expression in E. coli” value is given as “soluble”.

Take “MRFEDIGISKVDKVCLVDRLGCQENLVGTVHVTTTHIIFRAENGSKELWLATGLISSVEKGTLTAAGCMLVIRCKHFQVITLLISRDKSCQDLYETLQRAAKPVSVNVTELLAFENREPVEDVRGWRRLDWNSEMTRQGITKSQWTESNINEGYTICDTYPNKLWFPTAASTSVLLGSCKFRSRGRLPVLTYFHQQTEAALCRCAQPLTGFSARCVEDEKLMELVGKANTNSDNLFLVDTRPRVNAMVNKVQGKGFEDERNYSNMRFHFFDIENIHVMRASQARLLDAVTKCRDVTEYWKTLEASGWLKHVRSVVECSLFLAESISRGTSCVVHCSDGWDRTSQVVALCQLLLDPYYRTIHGFQVLIEKDWLGFGHKFDDRCGHVGALNDEAGKEVSPIFTQWLDCIWQIMQQKPRAFQFNERYLIEMHEHVYSCQFGTFIGNCDKDRRDLNLSKRTKSLWTWMDARHDDYMNPFYSPTAHVALLDLDTRAARFTVWTAMYNRFDNGLQPRERLEDLTMAAMEHVGVLESHVAQLRTRLAELKTQQNQQITSTNTPTNMVDSGMSSATDDLKNLSLSHPLDPLSSTLPILERATSQESGVMDSSLYYPDEALTKYSLKWQPLRGADRCSNPACRGEFSSTIERRIHCHLCGMIFCRRCLKVSADERERVCDKCKTD”: the “soluble on expression in E. coli” value is “not soluble”.

As to “MGSDKIHHHHHHMKIVKFGGSSLSSGVQIRKVFQIVKSDPERRIVVVSAPGKRFKGDVKITDLLLKLAEAILNEEKTAQIYEQIFLRYQAIGDFFKIPRSGIEQLKEHLYSVAQADYPSNDFFRAALSAQGENMSAHLITLIFKQLGLKARLLTPKEVGLTVSGEARKAQILPGSYAKIAKTKFTDNEVLIFPGFFGITKNGLINTFSRGGSDITGAILARGFGADLYENFTDVDSIYAVNPGLVADPAPIKEMTYNEMRELSYAGFAVFHDEAILPAIQGKIPICVKNTNRPEMPGTKIVPRDKVSHKNKITGIASSHHFQAIYLHRYLINREVGFTAKILKIMADLNISYEHMPSGIDDLTIILDKNQLTNGRKEKLTQRIKDEIQPDDLQWRNDYAIIMVVGEGLVNRVGAMADIVDPIRDAGISLTMVNQGSSEISIMLGVRPEDEQKAVKAIYNDHFENGHPKKELQIPRASFKSVSKSLIANFFV”, the “soluble on expression in E. coli” value was “not soluble”.

As to “MGSDKIHHHHHHMSLHAPTFSKLFSGVIWKIIADSDTGTVYVETRDGDKRKALFHAFDLQAKKMLWADVSILDAWWSSLKIANKGNLLVVKFNDPDMPEQRGFAVIDGKTSKLLWGKDDAQVMQAEPDGIIVAEGKEEDSSYLKLDWAAGKTLGAVSVKEMFSGFNKKAQTRSFVLYPFHFEEENSFFSKIKEYIEIITGHKAVRMIEYLEKGDKVLISYYIYEEEKLTNFILVADEKGALLVHEKLNAGLKGIGMDTFFVLKDQLIVVKNNNELQSYVIK”, the “soluble on expression in E. coli” value is “not soluble”.
